From patent US20180162944A1 (WUXI BIOLOGICS SHANGHAI, published 2018)
Where a chain is given by its changes, count along the chain named. Blank lines part the entries; values can stand above or below the binder they belong to.

Tests used:
[1] = target: T1, human PD-L1 expressed on cells (CHO / CHO-K1 cells transfected with full-length human PD-L1); native PD-L1 on … (human, UniProt Q9NZQ7 19-290); assay: FACS, native PD-L1 on human monocyte-derived dendritic cells, MFI against antibody concentration
T1 construct: whole, on cells; also called PD-L1 expressing CHO cell; PD-L1 transfected CHO cells

[2] = target: T2, PD-L2 expressed on transfected CHO cells (Homo sapiens (Human), UniProt Q9BQ51 20-273); assay: FACS, PD-L2 transfected CHO-K1 cells, single staining, concentration not shown
T2 sequence: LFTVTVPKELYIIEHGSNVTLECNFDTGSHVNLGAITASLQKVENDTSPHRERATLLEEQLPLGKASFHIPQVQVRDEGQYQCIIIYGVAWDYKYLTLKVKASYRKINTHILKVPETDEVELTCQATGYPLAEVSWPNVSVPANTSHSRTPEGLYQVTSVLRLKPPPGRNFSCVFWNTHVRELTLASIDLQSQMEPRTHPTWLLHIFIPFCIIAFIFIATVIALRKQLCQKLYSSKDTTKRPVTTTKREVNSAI
Procedure: 3.8. Cross-family binding assay by FACS: to examine the cross-family binding activity of the humanized antibodies, cells lines that express PD-L2 were stained with the humanized antibodies, followed by 2nd antibody staining with FITC conjugated goat anti-human IgG Fc. PD-L1 expressing cells were used as positive control. Corresponding parental cell lines were used as negative controls. The stained cells were analyzed by using a BD Biosciences FACSCanto II and FlowJo Version software.
CHO cells transfected with PD-L1 or PD-L2 were stained with humanized PD-L1 antibodies and analysis by FACS.

recombinant human PD-L1 = target: T3, recombinant human PD-L1 (human, UniProt Q9NZQ7 19-238); assay: SPR (ProteOn XPR36), antibody captured on Protein A, human PD-L1 as analyte, 1:1 Langmuir fit
T3 construct: the whole natural entry is named
Procedure: 3.2. […] Protein A protein (Sigma) was immobilized to a GLM sensor chip (Bio-Rad) through amine coupling. Purified antibodies were flowed over the sensor chip and captured by the Protein A. The chip was rotated 90° and washed with running buffer (1×PBS/0.01% Tween20, Bio-Rad) until the baseline is stable. Five concentrations of human PD-L1 and running buffer were flowed against the antibody flow cell at a flow rate 100 μL/min for an association phase of 240s, followed by 600s dissociation. The chip was regenerated with pH 1.7 H₃PO₄ after each run. The association and dissociation curve was fit to a 1:1 Langmuir binding model using ProteOn software.

[3] = target: T1, human PD-L1 expressed on cells (CHO / …); assay: FACS, CHO cells transfected with full-length human PD-L1, MFI against antibody concentration
[4] = target: T1, human PD-L1 expressed on cells (CHO / …); assay: FACS competition on human PD-L1 expressing CHO cells; blocked ligand: mouse Fc-tagged human PD-1; bottom panel
murine PD-L1 [5] = target: T4, murine PD-L1 (mouse, UniProt Q9EP73 19-239, limits assumed); assay: ELISA or FACS
T4 construct: also called mouse PD-L1

cynomolgus monkey PD-L1 [6] = target: T5, cynomolgus monkey PD-L1 (cynomolgus monkey, UniProt G7PSE7 19-238); assay: ELISA, cynomolgus PD-L1 coated on the plate, OD450 against antibody concentration; lower panel
T5 construct: also called cyno PD-L1
Procedure: (§1) 3.7. Cross-species binding assay: the cross-reactivity of the Ab to cynomolgus and murine PD-L1 was measured by ELISA. Human, cyno and mouse PD-L1 were coated on ELISA plates, respectively. After blocking, the humanized antibodies were added into the plate and incubated at room temperature for at least 2 hours. The binding of the antibodies to the coated antigens was detected by using goat anti-human IgG Fc-HRP. The color reaction was developed using TMB substrate and stopped by 2M HCl. The ELISA plates were analyzed at 450 nm using a Molecular Device M5e microplate reader.

cynomolgus monkey PD-L1 [7] = target: T5, cynomolgus monkey PD-L1; assay: ELISA, cynomolgus PD-L1 coated on the plate, OD450 against antibody concentration; upper panel
Procedure: as §1

murine PD-L1 [8] = target: T4, murine PD-L1; assay: ELISA, antigen coated on plate
Procedure: as §1

[9] = target: T1, human PD-L1 expressed on cells (CHO / …); assay: FACS competition on human PD-L1 expressing CHO cells; blocked ligand: mouse Fc-tagged human PD-1; top panel
[10] = target: T1, human PD-L1 expressed on cells (CHO / …); assay: FACS competition on human PD-L1 expressing CHO cells; blocked ligand: mouse Fc-tagged human PD-1; middle panel

T1 sequence (Q9NZQ7 19-290): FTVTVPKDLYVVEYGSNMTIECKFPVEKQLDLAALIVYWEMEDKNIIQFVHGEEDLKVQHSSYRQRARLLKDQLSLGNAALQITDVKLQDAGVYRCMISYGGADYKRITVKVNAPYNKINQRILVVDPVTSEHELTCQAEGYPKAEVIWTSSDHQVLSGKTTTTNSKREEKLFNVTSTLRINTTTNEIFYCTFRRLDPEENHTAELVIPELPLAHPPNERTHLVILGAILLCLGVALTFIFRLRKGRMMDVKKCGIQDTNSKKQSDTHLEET
T3 sequence (Q9NZQ7 19-238 limits assumed): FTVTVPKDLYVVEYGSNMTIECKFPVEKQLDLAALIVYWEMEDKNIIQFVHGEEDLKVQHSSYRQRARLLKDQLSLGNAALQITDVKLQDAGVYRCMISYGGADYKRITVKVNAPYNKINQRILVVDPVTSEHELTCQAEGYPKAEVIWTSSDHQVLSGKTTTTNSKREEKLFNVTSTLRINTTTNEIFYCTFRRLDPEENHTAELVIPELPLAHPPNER
T4 sequence (Q9EP73 19-239 limits assumed): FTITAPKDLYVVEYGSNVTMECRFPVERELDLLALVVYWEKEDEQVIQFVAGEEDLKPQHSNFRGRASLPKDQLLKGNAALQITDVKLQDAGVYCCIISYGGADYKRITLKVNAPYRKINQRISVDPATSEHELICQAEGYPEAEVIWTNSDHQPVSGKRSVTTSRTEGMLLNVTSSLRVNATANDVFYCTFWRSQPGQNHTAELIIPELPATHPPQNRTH
T5 sequence (G7PSE7 entry or part of it limits assumed): as the sequence (Q9NZQ7 19-238 limits assumed) above, with A33T, A34S, S62N, R68Q, Q82R, F173L, T185A, T192I, H215L counted along it

EC50 [1]: 2.52 nM
binding result [2]: no binding
Kd (recombinant human PD-L1): 0.0676 nM
koff (recombinant human PD-L1): 5.48e-05 s⁻¹
kon (recombinant human PD-L1): 811000 M⁻¹ s⁻¹
EC50 [3]: 1.17 nM
IC50 [4]: 0.196 nM
binding result (murine PD-L1 [5]): no binding
EC50 (cynomolgus monkey PD-L1 [6]): 0.0524 nM
B1: 2.74.15.hAb8 (antibody, V domains shown)
VH: QVQLQESGPGLVKPSETLSLTCTVSGYSITSGYIWHWIRQPPGKGLEWIGYIHYSGTTDFNPSLESRVTISVDTSKNQFSLKLSSVTAADTAVYYCAREGRSYGGFAYWGQGTLVTVSS
VL: DIQMTQSPSSLSASVGDRVTITCKASQSVSNGVAWYQQKPGKVPKLLIYYASNRFTGVPSRFSGSGSGTDFTLTISSLQPEDVATYYCQQDYSSPFTFGQGTKLEIK
notes: Humanized antibody with a human constant region of IgG4 isotype

EC50 (cynomolgus monkey PD-L1 [7]): 0.00577 nM
EC50 [1]: 1.82 nM
binding result [2]: no binding
binding result (murine PD-L1 [8]): no binding
Kd (recombinant human PD-L1): 0.0389 nM
koff (recombinant human PD-L1): 2.83e-05 s⁻¹
kon (recombinant human PD-L1): 728000 M⁻¹ s⁻¹
IC50 [9]: 0.622 nM
EC50 [3]: 1.53 nM
B2: 2.74.15.hAb4 (antibody, V domains shown)
VH: B1 VH with S119A
VL: B1 VL with D1S, I2F, Q3V, Q100S, K103E
notes: as for B1

EC50 [1]: 2.53 nM
binding result [2]: no binding
Kd (recombinant human PD-L1): 0.155 nM
koff (recombinant human PD-L1): 0.000146 s⁻¹
kon (recombinant human PD-L1): 938000 M⁻¹ s⁻¹
EC50 [3]: 1.18 nM
IC50 [4]: 0.199 nM
binding result (murine PD-L1 [5]): no binding
EC50 (cynomolgus monkey PD-L1 [6]): 0.000721 nM
B3: 2.74.15.hAb7 (antibody, V domains shown)
VH: B1 VH
VL: B1 VL with M4L, S10F, V43A, D70E, V83F
notes: as for B1

EC50 (cynomolgus monkey PD-L1 [7]): 0.026 nM
EC50 [1]: 2 nM
IC50 [10]: 0.15 nM
binding result [2]: no binding
Kd (recombinant human PD-L1): 0.106 nM
koff (recombinant human PD-L1): 0.000135 s⁻¹
kon (recombinant human PD-L1): 1.27e+06 M⁻¹ s⁻¹
EC50 [3]: 1.11 nM
binding result (murine PD-L1 [5]): no binding
B4: 2.74.15.hAb5 (antibody, V domains shown)
VH: B1 VH with S25T, P42A
VL: B1 VL with M4L, S10F, V43A, D70E, V83F
notes: as for B1

EC50 (cynomolgus monkey PD-L1 [7]): 0.0238 nM
EC50 [1]: 2.39 nM
IC50 [10]: 0.157 nM
binding result [2]: no binding
Kd (recombinant human PD-L1): 0.149 nM
koff (recombinant human PD-L1): 0.000172 s⁻¹
kon (recombinant human PD-L1): 1.16e+06 M⁻¹ s⁻¹
EC50 [3]: 1.08 nM
binding result (murine PD-L1 [5]): no binding
B5: 2.74.15.hAb6 (antibody, V domains shown)
VH: B1 VH with S25T, P42A
VL: B1 VL
notes: as for B1
